Laboratory results taken from patent publication US12564623B2, “Methods and compositions for treating cancer” (The University of Chicago, priority 2017, dated 2026).
Ends that are not written are not given here.

Key:
MDA-MB-231 cells [1] = test: ELANE inactivation by PMSF or A1AT and killing assay; format: cell-based, human; conditions: irreversible non-competitive ELANE inhibitors
Protocol: (FIG. 5A) Purified native ELANE or PMN media was treated with PMSF (100 nM) or alpha-1-anti-trypsin (A1AT; 42 nM) for 30 mins and loss of ELANE catalytic activity was confirmed by a chromogenic substrate assay. Killing assays were performed by treating MDA-MB-231 cells for 24 hrs treatment and assessed by Calcein AM staining. (FIG. 5B) ELANE activity in PMN media was measured by a chromogenic substrate activity assay, and PMN killing was measured by Calcein AM staining on MDA-MB-231 cells exposed to PMN media for 4h.

ELANE [2] = conditions: specific ELANE inhibitors; cited from earlier work
MDA-MB-231 cells [3] = test: Cancer cell killing, Calcein AM staining; format: cell-based, human; conditions: increasing doses, 5h
Protocol: Approach to identify the factor(s) mediating selective killing. A quantitative cancer cell killing assay was developed to track the bioactive factor(s). MDA-MB-231 cells were treated with various doses of PMN media and cell viability was assessed by Calcein AM live cells fluorescence staining. […] (FIG. 3B) PMN media was passed through a 0.22 μm filter, and protein concentration and killing activity on MDA-MB-231 cancer cells was measured in both pre- and post-filter solutions. […] ELANE and ECP levels in PMN media pre- and post-filtration were quantified by mass spectrometry (spectral counts).
To determine if ELANE and/or ECP were responsible, the inventors (1) immuno-depleted ELANE or ECP from PMN media; (2) treated cancer or normal cells with purified native ELANE or ECP from commercial sources. (FIG. 6A) ELANE or ECP were depleted from PMN media by immunoprecipitation; depletion was confirmed by western blotting. PMN media pre-depletion=Orig. and post-depletion=FT. Non-specific IgG was used as a control. (FIG. 6B) MDA-MB-231 cells or human monocyte-derived macrophages (HMDMs) were treated with purified native ELANE or ECP at various doses for 24h, and killing was assessed by Calcein AM staining. (FIG. 6C) MDA-MB-231 cells and HMDMs were treated with levels of ELANE (0.25 μg/mL) or ECP (0.05 μg/mL) that were present in the PMN media, alone or in combination for 24 hrs, and killing was examined by Calcein AM staining.
High doses of ECP or ELANE can kill cancer cells. The inventors sought to determine whether adding purified human ECP (Lee Biosolutions), human ELANE (Abcam), human DEFA1 (Abcam), human ANXA6 (R&D Systems) or human CASP3 (Abcam) individually could kill cancer cells without killing non-cancer cells. Increasing doses of each protein were added to MDA-MB-231 cells for 5h or human monocyte-derived macrophages (HMDMs) for 24 h and cell viability was determined by Calcein-AM.
ELANE and ECP synergize to selectively kill cancer cells. MDA-MB-231 and human monocyte-derived macrophages (HMDMs) were treated with levels of ELANE (0.25 μg/mL) or ECP (0.05 μg/mL) that were present in the PMN media, alone or in combination for 24 hrs. killing was examined by Calcein AM staining.
Combining chemotherapeutics and neutrophil conditioned media enhances the killing of human triple negative breast cancer cells. MDA-MB-231 cells were treated with neutrophil conditioned media (Neu-CM; 4 μg/mL), doxorubicin (DOX; 0.3 μM), or paclitaxel (PTX; 3 nM) for 4h, individually or in combination, and cell viability was assessed by Calcein-AM.
Other serine proteases cleave the C-terminal domain of CD95, and the ability to cleave the C-terminal domain is associated with cancer cell killing. (FIG. 12A) Full length recombinanat CD95 protein was incubated with various serine proteases (human ELANE (80 nM), PR3 (80 nM), CSTG (80 nM), PPE (80 nM), mouse ELANE (80 nM), rat ELANE (500 nM), GZMB (80 nM), or Trypsin (250 nM)), or other types of proteases (CTSC (80 nM); or MMP7 (80 nM), MMP9 (80 nM), CTSD (80 nM) not shown) at 37° C. for 2 hours. Degradation was assessed by SDS-PAGE followed by coomassie blue staining. (FIG. 12B) MDA-MB-231 cancer cells were incubated with various proteases for 24 hrs. Cell viability was assessed by Calcein AM staining.
(FIG. 13A) MDA-MB-231 cancer cells were treated with various doses of purified native ELANE or purified native porcine pancreatic elastase (PPE) for 6 h, and killing was assessed by Calcein AM staining. (FIG. 13B). Purified native ELANE or purified native PPE was incubated with different concentrations of alpha-1-anti-trypsin (A1AT) for 15 mins. Catalytic activity was measured using a chromogenic substrate assay. Cancer cell killing capability was determined by treating MDA-MB-231 cancer cells with ELANE or PPE in the presence or absence of A1AT for 6h, followed by Calcein AM staining. (FIG. 13C) Catalytic activity was measured using a chromogenic substrate assay. […]

ELANE [4] = biological target: T1, ELANE (Homo sapiens, UniProt P08246); test: Anti-ELANE magnetic bead pull-down from neutrophil conditioned media, western blotting; format: binding; conditions: anti-ELANE antibody beads
T1 construct: incubated the neutrophil conditioned media with magnetic beads coupled to an anti-ELANE antibody; endogenous in cells; host or cells: human peripheral blood neutrophils from healthy donors (conditioned media)
T1 sequence (P08246 30-267): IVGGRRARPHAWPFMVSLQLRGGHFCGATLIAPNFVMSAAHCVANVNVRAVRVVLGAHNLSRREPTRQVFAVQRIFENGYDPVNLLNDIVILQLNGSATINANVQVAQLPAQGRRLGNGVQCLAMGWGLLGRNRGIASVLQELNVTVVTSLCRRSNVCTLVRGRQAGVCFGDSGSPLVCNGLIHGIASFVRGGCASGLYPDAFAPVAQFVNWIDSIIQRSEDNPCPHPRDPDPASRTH
Text: Identification of ECP, ELANE, ANXA6, DEFA1, and CASP3 as candidate cancer cell killing proteins in the neutrophil conditioned media. Neutrophil conditioned media was obtained from 2 different donors (Donor 1 and Donor 2). […] To determine the identity of the proteins depleted by the 0.2 μm sterile filter, the inventors performed quantitative proteomics analysis on the conditioned media from each donor pre- and post-filter. Proteomics analysis identified 2000 proteins, 4 of which (ECP, ELANE, ANXA6, and DEFA1) were depleted in samples from both donors (G-test, p<0.05). The inventors explored the possibility that these proteins might interact with or complement one another. This hypothesis was tested using two approaches. First, the inventors incubated the neutrophil conditioned media with magnetic beads coupled to an anti-ELANE antibody and analyzed the supernatant (sup), wash, and eluent (elute) by western blotting.

[5] = test system: E0771, B16F10, or LLC1 cancer cells; test: Tumor growth after intratumoral delivery, syngeneic models; format: in vivo, C57BL/6 mice; conditions: 11.6 μg intratumorally once/day for 5 days
Protocol: ELANE activity is required for its anti-tumor function in vivo. (FIG. 14A) Catalytic activity of ELANE or ELANE that had been inactivated by treatment with 100 nM PMSF (PMSF-ELANE) was determined by a chromogenic substrate. (FIG. 14B) E0771, B16F10, or LLC1 cancer cells were injected into C57BL/6 mice. Once tumors reached ˜100 mm^3, human serum albumin (HSA, 11.6 μg), ELANE (11.6 μg), or PMSF-ELANE (11.6 μg) were delivered intratumorally once/day for 5 days. Tumor volume was assessed by calipers.

ELANE [6] = biological target: T1, ELANE; test: ELANE catalytic activity with increasing ECP, chromogenic substrate activity assay; format: biochemical; conditions: ECP as type 2 allosteric activator
Protocol: (§1) FIG. 7A-D. ECP is a type II allosteric activator of ELANE catalytic activity. (a) 10 nM ELANE was incubated with increasing ECP concentrations at various substrate concentrations. Catalytic activity was measured by a chromogenic substrate activity assay. (b) Km (app) and Vmax (app) values were obtained by fitting curves to Michaelis-Menten equations (lines). (c) Km (app) versus ECP concentration. (d) Vmax (app) versus ECP concentration. ELANE was immunoprecipitated from human PMN media and samples were probed with anti-ELANE and anti-ECP antibodies. Orig=PMN media, Sup=flow-though, Wash=bead wash, Elute=bound to anti-ELANE antibody.
as §1, with “ECP” for “FIG. 7A-D. ECP”, “(FIG. 7A)” for “(a)”, “(FIG. 7B)” for “(b)”, “(FIG. 7C)” for “(c)”, “(FIG. 7D)” for “(d)”

[7] = test system: human monocyte-derived macrophages (HMDMs); format: cell-based
Protocol: Human peripheral blood neutrophils were isolated from healthy donors. Cells were plated in serum-free DMEM and the neutrophil conditioned media (Neu CM) was collected for 24h. […] High doses of ECP or ELANE can kill cancer cells. The inventors sought to determine whether adding purified human ECP (Lee Biosolutions), human ELANE (Abcam), human DEFA1 (Abcam), human ANXA6 (R&D Systems) or human CASP3 (Abcam) individually could kill cancer cells without killing non-cancer cells. Increasing doses of each protein were added to MDA-MB-231 cells for 5h or human monocyte-derived macrophages (HMDMs) for 24 h and cell viability was determined by Calcein-AM. […] ELANE and ECP synergize to selectively kill cancer cells. MDA-MB-231 and human monocyte-derived macrophages (HMDMs) were treated with levels of ELANE (0.25 μg/mL) or ECP (0.05 μg/mL) that were present in the PMN media, alone or in combination for 24 hrs. killing was examined by Calcein AM staining.

Q: Which “effect on cancer cell apoptosis of treating ELANE or neutrophil conditioned media with inhibitor” value (MDA-MB-231 cells [1]) does the source give for `O=S(=O)(F)Cc1ccccc1` [PMSF] here?
A: protects cancer cells from apoptosis

Q: Which “growth of transplanted cancer cells” value (ELANE [2]) does the source give for `CC(C)(C)C(=O)Oc1ccc(S(=O)(=O)Nc2ccccc2C(=O)NCC(=O)O)cc1` [sivelestat] here?
A: suppress growth of cancer cells transplanted into severe combined immunodeficiency mice

Q: With DEFA1: purified human DEFA1 (Abcam) as the molecule, how does the “cancer cell killing activity of purified protein” value (MDA-MB-231 cells [3]) read?
A: low amount of activity

Q: And the “binding to ELANE” value (ELANE [4])?
A: ELANE-binding proteins

Q: Which “effect on cancer cell apoptosis of treating ELANE or neutrophil conditioned media with inhibitor” value (MDA-MB-231 cells [1]) does the source give for alpha-1-antitrypsin here?
A: protects cancer cells from apoptosis

Q: Which “growth of transplanted cancer cells” value (ELANE [2]) does the source give for “elafin (AQEPVKGPVSTKPGSCPIILIRCAMLNPPNRCLKDTDCPGIKKCCEGSCGMACFVPQ; ends and bridges not checked; cysteine pairing not given here; UniProt P19957 61-117, looked up)” here?
A: suppress growth of cancer cells transplanted into severe combined immunodeficiency mice

B1: PMSF-ELANE: ELANE that had been inactivated by treatment with PMSF (protein, UniProt P08246 30-267, looked up)
Neutrophil elastase: IVGGRRARPHAWPFMVSLQLRGGHFCGATLIAPNFVMSAAHCVANVNVRAVRVVLGAHNLSRREPTRQVFAVQRIFENGYDPVNLLNDIVILQLNGSATINANVQVAQLPAQGRRLGNGVQCLAMGWGLLGRNRGIASVLQELNVTVVTSLCRRSNVCTLVRGRQAGVCFGDSGSPLVCNGLIHGIASFVRGGCASGLYPDAFAPVAQFVNWIDSIIQRSEDNPCPHPRDPDPASRTH
modifications: PMSF-inactivated
Q: Which tumor growth [5] does the source give for B1 here?
A: no effect on tumor growth

B2: eosinophil cationic protein (protein, listed as Homo sapiens)
chain: MVPKLFTSQICLLLLLGLMGVEGSLHARPPQFTRAQWFAIQHISLNPPRCTIAMRAINNYRWRCKNQNTFLRTTFANVVNVCGNQSIRCPHNRTLNNCHRSRFRVPLLHCDLINPGAQNISNCTYADRPGRRFYVVACDNRDPRDSPRYPVVPVHLDTTI
Q: Which “effect on KM of ELANE” value (ELANE [6]) does the source give for B2 here?
A: without altering KM

Q: And the “increase of kcat of ELANE for its substrate” value (ELANE [6])?
A: 12 fold

Q: What about the “cancer cell killing activity of purified protein” value (MDA-MB-231 cells [3]) of the same molecule?
A: highest cancer cell killing activity

Q: What about the “toxicity to human monocyte-derived macrophages” value [7] of the same molecule?
A: showed toxicity

Q: And the “binding to ELANE” value (ELANE [4])?
A: ELANE-binding proteins

B3: CASP3: purified human CASP3 (Abcam) (protein)
chain: MENTENSVDSKSIKNLEPKIIHGSESMDSGISLDNSYKMDYPEMGLCIIINNKNFHKSTGMTSRSGTDVDAANLRETFRNLKYEVRNKNDLTREEIVELMRDVSKEDHSKRSSFVCVLLSHGEEGIIFGTNGPVDLKKITNFFRGDRCRSLTGKPKLFIIQACRGTELDCGIETDSGVDDDMACHKIPVEADFLYAYSTAPGYYSWRNSKDGSWFIQSLCAMLKQYADKLEFMHILTRVNRKVATEFESFSFDATFHAKKQIPCIVSMLTKELYFYH
Q: Which results are given for B3?
A: cancer cell killing activity of purified protein (MDA-MB-231 cells [3]): could not kill cancer cells; binding to ELANE (ELANE [4]): ELANE-binding proteins
